Experimental data taken from the supplement of paper PMC7125110.
± gives the standard error. For some assays here: Fewer inactive variants are shown than the library holds.

B1: glmS ribozyme (parent)
chain: AUAAAAGCGCCAGAACUACAGAAAUGUAGUUGACGAGGAGGAGGUUUAUCGAAUUUUCGGCGGAUGCCUCCAAA

Assays:
Settings in all cases: with glucosamine-6-phosphate
glucosamine-6-phosphate [1] = variants of: B1; assay: kcat; higher = faster cleavage; RNA array
How it was run: (§1)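 Over ~14 h at 37 °C, tiles were imaged as glucosamine-6-phosphate (40 μM to 10 mM) in HEPES/KCl/Mg(OAc)2 buffer flowed across sequenced MiSeq chips. The chips carried barcoded ribozyme variants transcribed in situ by E. coli RNA polymerase and tracked with a hybridised Cy3 probe. After normalisation to baseline and to non-cleaving reference variants, one- or two-exponential decay fits of per-tile medians gave kobs. kcat and KM followed from weighted Michaelis–Menten fits across concentrations.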

glucosamine-6-phosphate [2] = variants of: B1; assay: self-cleavage kobs at 40 uM GlcN6P; higher = faster cleavage; RNA array
How it was run: as §1

glucosamine-6-phosphate [3] = variants of: B1; assay: self-cleavage kobs at 160 uM GlcN6P; higher = faster cleavage; RNA array
How it was run: as §1

glucosamine-6-phosphate [4] = variants of: B1; assay: self-cleavage kobs at 2500 uM GlcN6P; higher = faster cleavage; RNA array
How it was run: as §1

glucosamine-6-phosphate [5] = variants of: B1; assay: self-cleavage kobs at 10000 uM GlcN6P; higher = faster cleavage; RNA array
How it was run: as §1

glucosamine-6-phosphate [6] = variants of: B1; assay: KM; higher = weaker cofactor use; RNA array
How it was run: as §1

glucosamine-6-phosphate [7] = variants of: B1; assay: self-cleavage kobs at 640 uM GlcN6P; higher = faster cleavage; RNA array
How it was run: as §1

Row | Variant | kcat (glucosamine-6-phosphate [1]) [s⁻¹] | self-cleavage kobs at 40 uM GlcN6P (glucosamine-6-phosphate [2]) [s⁻¹] | self-cleavage kobs at 160 uM GlcN6P (glucosamine-6-phosphate [3]) [s⁻¹] | self-cleavage kobs at 2500 uM GlcN6P (glucosamine-6-phosphate [4]) [s⁻¹] | self-cleavage kobs at 10000 uM GlcN6P (glucosamine-6-phosphate [5]) [s⁻¹] | KM (glucosamine-6-phosphate [6]) [µM] | self-cleavage kobs at 640 uM GlcN6P (glucosamine-6-phosphate [7]) [s⁻¹]
1 | AUAAAAGCGCCAGAACUACAGAAAUGUAGUUGACGAGGAGGAGGUGUAUCGUAUUUUCGGCGGAUGCCUCCAAA [U46G A52U] | 0.000165 ± 1.2e-05 | < 1e-05 | < 1e-05 | 2.87e-05 ± 1.3e-05 | 7.51e-05 ± 2.1e-05 |  | 
2 | AUAAAAGCGCCAGAACUACAGAAAUGUAGUUGACGAGGAGGAGGUGUAUCGAAUUUUAGGCGGAUGCCUCCAAA [U46G C58A] | 0.000164 ± 4e-05 | < 1e-05 |  | 3.08e-05 ± 1.2e-05 | 8.21e-05 ± 1.1e-05 |  | 
3 | AUAAAAGCGCCAGAACUACAGAAAUGUAGUUGACGAGGAGGAGGUCUAUCGAAUUAUCGGCGGAUGCCUCCAAA [U46C U56A] | 0.00121 ± 0.00013 | 2.85e-05 ± 1e-05 | 0.000117 ± 1.4e-05 | 0.000915 ± 0.00015 | 0.00098 ± 0.00014 | 1470 ± 230 | 0.000406 ± 0.00011
4 | AUAAAAGCGCCAGAACUACAGAAAUGUAGUUGACGAGGAGGAGGUGUAUCGAUUUUUCGGCGGAUGCCUCCAAA [U46G A53U] | 0.006 ± 0.0013 | 0.000116 ± 2.4e-05 |  | 0.00253 ± 0.00059 | 0.00566 ± 0.00098 | 2190 ± 770 | 0.00141 ± 0.00032
5 | AUAAAAGCGCCAGAACUACAGAAAUGUAGUUGACGAGGAGGAGGUCUAUCGAAUUUGCGGCGGAUGCCUCCAAA [U46C U57G] | 1.4e-05 ± 2.4e-06 |  |  |  |  |  | 
6 | AUAAAAGCGCCAGAACUACAGAAAUGUAGUUGACGAGGAGGAGGUGUUUCGAAUUUUCGGCGGAUGCCUCCAAA [U46G A48U] | 0.00014 ± 2.4e-05 |  |  | 0.000128 ± 2.5e-05 | 0.000117 ± 1.6e-05 |  | 3.53e-05 ± 1.4e-05
7 | AUAAAAGCGCCAGAACUACAGAAAUGUAGUUGACGAGGAGGAGGUGUGUCGAAUUUUCGGCGGAUGCCUCCAAA [U46G A48G] | 7.99e-05 ± 1e-06 | < 1e-05 |  | 5.4e-05 ± 1.2e-05 | 7.08e-05 ± 1e-05 | 1250 ± 69 | 
8 | AUAAAAGCGCCAGAACUACAGAAAUGUAGUUGACGAGGAGGAGGUCUAGCGAAUUUUCGGCGGAUGCCUCCAAA [U46C U49G] | 0.000109 ± 8.3e-06 |  |  | 8.96e-05 ± 1.6e-05 | 9.78e-05 ± 1.5e-05 | 817 ± 220 | 4.66e-05 ± 1.2e-05
9 | AUAAAAGCGCCAGAACUACAGAAAUGUAGUUGACGAGGAGGAGGUCUAUCGAAUUUUCGGCGGAUGCCUCUAAA [U46C C71U] | 0.00342 ± 0.00056 | 0.000102 ± 1.5e-05 | 0.000375 ± 5.8e-05 | 0.00309 ± 0.00044 | 0.00266 ± 0.00038 | 1240 ± 290 | 0.00126 ± 0.00019
10 | AUAAAAGCGCCAGAACUACAGAAAUGUAGUUGACGAGGAGGAGGUCUAUCGAAUUUUCGGCGGAUGCCUCAAAA [U46C C71A] | 0.000545 ± 4.7e-05 |  | 8.19e-05 ± 2.2e-05 | 0.00045 ± 9.1e-05 | 0.000453 ± 0.00011 | 811 ± 130 | 0.000252 ± 4.5e-05
11 | AUAAAAGCGCCAGAACUACAGAAAUGUAGUUGACGAGGAGGAGGUCUAUCGAAUUUUCGGCGGAUGCUUCCAAA [U46C C68U] | 0.000934 ± 0.0002 | 2.43e-05 ± 7.6e-06 | 7.49e-05 ± 1.3e-05 | 0.000933 ± 0.00014 | 0.000743 ± 7.7e-05 | 1480 ± 580 | 0.000387 ± 6e-05
12 | AUAAAAGCGCCAGAACUACAGAAAUGUAGUUGACGAGGAGGAGGUCUAUCGAAUGUUCGGCGGAUGCCUCCAAA [U46C U55G] | 0.00362 ± 0.00063 | 8.17e-05 ± 2.1e-05 | 0.000255 ± 5.8e-05 | 0.00259 ± 0.00049 | 0.00271 ± 0.00058 | 1790 ± 450 | 0.00107 ± 0.00023
13 | AUAAAAGCGCCAGAACUACAGAAAUGUAGUUGACGAGGAGGAGGUCUAUCGAAUCUUCGGCGGAUGCCUCCAAA [U46C U55C] | 0.00703 ± 0.0025 | 0.000129 ± 1.9e-05 | 0.000217 ± 4.2e-05 | 0.00291 ± 0.00042 | 0.00515 ± 0.00071 | 3630 ± 1700 | 0.00108 ± 0.00013
14 | AUAAAAGCGCCAGAACUACAGAAAUGUAGUUGACGAGGAGGAGGUCUAUCGAAUUUUCGGCGGAUGCCUGCAAA [U46C C70G] | 0.000447 ± 0.00013 | 6.28e-05 ± 2.3e-05 | 3.81e-05 ± 1.5e-05 | 0.000453 ± 6.5e-05 | 0.000346 ± 5.5e-05 |  | 0.000178 ± 2.9e-05
